Assay results: publication PMC13100509, “A milestone in C4 carbon concentration mechanism evolution: structural remodeling of NADP-malic enzyme in Poaceae” (Molecular Biology and Evolution, 2026)
Where “and” joins values, the source holds several entries; their conditions need not be identical. Identical values can stand only once.

Target: the molecule itself
Experiment: native gel or EMSA; native PAGE (6% or 7%) of purified recombinant proteins, 100 V, 4 °C; Coomassie staining or in-gel NADP-ME activity assay; oligomeric state from mobility against native markers

Protein | stoichiometry N
C4NnC4GR variant of maize C4-NADP-ME (enzyme) AAEMEQEEAEVAAAAAGVVVEDHYGEDSASEELPVMPWATSVASGYTLLRDPHHNKGLAFTEEERDGHYLRGLLPPAVLSQELQIKKFMNTLRQYQTPLQRYIAMMNLQETDERLFYKLLIDNVVELLPFVYTPTVGEACQKYGSIFRRPQGLYVSLKDKGKVLEVLRNWPHRNIQVICVTDGERILGLGDLGCQGMGIPVGKLALYTALGGVDPSVCLPITIDVGTNNEKLLNDEFYIGLRQKRATGEEYDELIEEFMSAVKQFYGEKVLIQFEDFANHNAFDLLEKYSKSHLVFNDDIQGTASVVLAGLLAALKMVGGTLAEQTYLFLGAGEAGTGIAELIALEISKQTNAPIEECRKKVWLVDSKGLIVDSRKGSLQPFKKPWAHEHEPLKTLYDAVQSIKPTVLIGTSGVGRTFTKEIIEAMSSFNERPIIFSLSNPTSHSECTAEQAYTWSQGRSIFASGSPFAPVEYEGKTFVPGQSNNAYIFPGLGLGLVISGAVRVHEDMLLAASKALADQATQDNFEKGSIFPPFTSIRKISAHIAAAVAAKAYELGLATRLPPPSDLVKYAENCMYTPVYRNYR | 2
C4T163R mutant of maize C4-NADP-ME (enzyme, maize (Zea mays), UniProt P16243 63-636, looked up, C4-NADP-malic enzyme (ZmC4-NADP-ME), plastidic C4 isoform of maize; source: E. coli Rosetta2 (DE3) or ArcticExpress (DE3), purified (Ni-NTA)) MVSNAETETEKEQEEAAAASEELPVMPWATSVASGYTLLRDPHHNKGLAFTEEERDGHYLRGLLPPAVLSQELQIKKFMNTLRQYQTPLQRYIAMMNLQERDERLFYKLLIDNVVELLPFVYTPTVGEACQKYGSIFGRPQGLYVSLKDKGKVLEVLRNWPHRNIQVICVTDGERILGLGDLGCQGMGIPVGKLALYTALGGVDPSVCLPITIDVGTNNEFLLNDEFYIGLRQKRATGEEYDELIEEFMSAVKQFYGEKVLIQFEDFANHNAFDLLEKYSKSHLVFNDDIQGTASVVLAGLLAALKMVGGTLAEQTYLFLGAGEAGTGIAELIALEISKQTNAPIEECRKKVWLVDSKGLIVDSRKGSLQPFKKPWAHEHEPLKTLYDAVQSIKPTVLIGTSGVGRTFTKEIIEAMSSFNERPIIFSLSNPTSHSECTAEQAYTWSQGRSIFASGSPFAPVEYEGKTFVPGQSNNAYIFPGLGLGLVISGAVRVHEDMLLAASKALADQATQDNFEKGSIFPPFTSIRKISAHIAAAVAGKAYELGLATRLPPPSDLVKYAENCMYTPVYRNYR | 2 and 4
C4G200R mutant of maize C4-NADP-ME (enzyme, maize (Zea mays), UniProt P16243 63-636, looked up, C4-NADP-malic enzyme (ZmC4-NADP-ME), plastidic C4 isoform of maize; also called C4-NADP-ME-G200R; source: E. coli Rosetta2 (DE3) or ArcticExpress (DE3), purified (Ni-NTA)) MVSNAETETEKEQEEAAAASEELPVMPWATSVASGYTLLRDPHHNKGLAFTEEERDGHYLRGLLPPAVLSQELQIKKFMNTLRQYQTPLQRYIAMMNLQETDERLFYKLLIDNVVELLPFVYTPTVGEACQKYGSIFRRPQGLYVSLKDKGKVLEVLRNWPHRNIQVICVTDGERILGLGDLGCQGMGIPVGKLALYTALGGVDPSVCLPITIDVGTNNEFLLNDEFYIGLRQKRATGEEYDELIEEFMSAVKQFYGEKVLIQFEDFANHNAFDLLEKYSKSHLVFNDDIQGTASVVLAGLLAALKMVGGTLAEQTYLFLGAGEAGTGIAELIALEISKQTNAPIEECRKKVWLVDSKGLIVDSRKGSLQPFKKPWAHEHEPLKTLYDAVQSIKPTVLIGTSGVGRTFTKEIIEAMSSFNERPIIFSLSNPTSHSECTAEQAYTWSQGRSIFASGSPFAPVEYEGKTFVPGQSNNAYIFPGLGLGLVISGAVRVHEDMLLAASKALADQATQDNFEKGSIFPPFTSIRKISAHIAAAVAGKAYELGLATRLPPPSDLVKYAENCMYTPVYRNYR | 2
C4D164N mutant of maize C4-NADP-ME (enzyme, maize (Zea mays), UniProt P16243 63-636, looked up, C4-NADP-malic enzyme (ZmC4-NADP-ME), plastidic C4 isoform of maize; source: E. coli Rosetta2 (DE3) or ArcticExpress (DE3), purified (Ni-NTA)) MVSNAETETEKEQEEAAAASEELPVMPWATSVASGYTLLRDPHHNKGLAFTEEERDGHYLRGLLPPAVLSQELQIKKFMNTLRQYQTPLQRYIAMMNLQETNERLFYKLLIDNVVELLPFVYTPTVGEACQKYGSIFGRPQGLYVSLKDKGKVLEVLRNWPHRNIQVICVTDGERILGLGDLGCQGMGIPVGKLALYTALGGVDPSVCLPITIDVGTNNEFLLNDEFYIGLRQKRATGEEYDELIEEFMSAVKQFYGEKVLIQFEDFANHNAFDLLEKYSKSHLVFNDDIQGTASVVLAGLLAALKMVGGTLAEQTYLFLGAGEAGTGIAELIALEISKQTNAPIEECRKKVWLVDSKGLIVDSRKGSLQPFKKPWAHEHEPLKTLYDAVQSIKPTVLIGTSGVGRTFTKEIIEAMSSFNERPIIFSLSNPTSHSECTAEQAYTWSQGRSIFASGSPFAPVEYEGKTFVPGQSNNAYIFPGLGLGLVISGAVRVHEDMLLAASKALADQATQDNFEKGSIFPPFTSIRKISAHIAAAVAGKAYELGLATRLPPPSDLVKYAENCMYTPVYRNYR | 2 and 4
